Measured values reported in US5981720A, “Human salivary proteins and fragments thereof having alpha-glucosidase inhibitory activity” (priority 1997, dated 1999).
Residues, ends and D or L forms follow the SMILES beside them. No end group written: not given here. *: point of attachment. NH(β-GlcNAc) = CC(=O)N[C@@H]1[C@@H](O)[C@H](O)[C@@H](CO)O[C@H]1N*; acetylglucosamine = N-acetylglucosamine

Biological target: yeast alpha-glucosidase (Saccharomyces cerevisiae, UniProt P53341)
Type: biochemical
Description: The enzyme of alpha-glucosidase activity is according to the procedure as described by Sigma Chemical Company, St. Louis, Mo. Routinely, the enzyme reaction mixture contains 10 mM maltose and 50 ul of purified alpha-glucosidase or 0.02 units of yeast alpha-glucosidase in a final volume of 60 ul of 25 mM sodium acetate buffer, pH 5.6. The reaction mixture is incubated at 37° C. for 60 minutes, and the production of glucose is determined by the glucose oxidase reagent (Worthington Statzyme Glucose 500) in accordance with recommendation of Worthington Biochemical Corporation.

yeast alpha-glucosidase, sequence (P53341 whole entry): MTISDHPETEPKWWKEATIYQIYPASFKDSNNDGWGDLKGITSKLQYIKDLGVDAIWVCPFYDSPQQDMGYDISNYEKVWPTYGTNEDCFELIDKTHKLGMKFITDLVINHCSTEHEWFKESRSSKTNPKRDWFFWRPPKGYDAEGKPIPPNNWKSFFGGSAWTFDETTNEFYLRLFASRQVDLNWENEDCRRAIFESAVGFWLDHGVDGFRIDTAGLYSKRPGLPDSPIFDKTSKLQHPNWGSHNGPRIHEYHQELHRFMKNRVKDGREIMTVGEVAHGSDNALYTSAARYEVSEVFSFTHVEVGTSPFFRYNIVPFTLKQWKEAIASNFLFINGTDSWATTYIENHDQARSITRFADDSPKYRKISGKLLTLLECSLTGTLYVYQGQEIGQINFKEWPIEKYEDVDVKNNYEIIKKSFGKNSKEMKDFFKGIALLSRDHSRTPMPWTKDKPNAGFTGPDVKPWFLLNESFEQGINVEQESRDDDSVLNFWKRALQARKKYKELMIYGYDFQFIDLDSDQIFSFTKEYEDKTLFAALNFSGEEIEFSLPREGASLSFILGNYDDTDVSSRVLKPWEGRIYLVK

Compound: CC(=O)N[C@@H]1[C@@H](O)[C@H](O)[C@@H](CO)O[C@H]1NC(=O)C[C@H](NC(=O)CNC(=O)CN)C(=O)N[C@@H](CCCCN)C(=O)O [synthetic glycopeptide, Gylcyl-glycl-(NB-2-(acetylamino)-deoxy-2-B-pyranosyl)-asparaginyl-lysine] (H-GGD(NH(β-GlcNAc))K-OH)
- inhibitory effect on the alpha-glucosidase activity (10 ug of peptide, 50 mM acetate buffer pH 5.6, compared to control): about 90%

Compound: acetoacetate glycopeptide complex: reaction product of the putative glycopeptide with acetoacetate reagent (GGN(acetylglucosamine)K; also: reacted with acetoacetate reagent (glycine residue))
- inhibitory effect on alpha-glucosidase activity (in words) (0.02 units of yeast alpha-glucosidase): loss of inhibitory effect of the glycopeptide itself but is able to stimulate the alpha-glucosidase activity

Compound: glycine-glycine-asparagine-pyridoxyl-lysine acetylglucosamine
- increase in inhibitory effect on alpha-glucosidase (glycopeptide preincubated with pyridoxal 5-phosphate versus unmodified glycopeptide): 50%

Compound: glycopeptide: bioactive fragment from Lys-C digestion of CON-1: glycine-glycine-asparagine-lysine, asparagine glycosylated by acetylglucosamine (GGN(acetylglucosamine)K)
- inhibition of alpha-glucosidase lost after N-acetylglucosaminidase treatment (compared to the nontreated glycopeptide): about 20%
- change of inhibitory activity after removal of acetylglucosamine (in words) (incubation with N-acetylglucosaminidase): marked reduction in inhibitory activity
